Source: US20230134571A1 (INTERNATIONAL AIDS VACCINE INITIATIVE, published 2023)

What was measured:
Experiment in all cases: cell-based or functional assay
[1] = target: HIV Env, isolate 20198102_E9_G1 (HIV)
[2] = target: HIV Env, isolate CAP69.1.12_TA7.1 (HIV)
[3] = target: HIV Env, isolate CAP323.2.00_B6.45 (HIV)
[4] = target: HIV Env, isolate 541-F1_A7_2 (HIV)
[5] = target: HIV Env, isolate Ko426_T78_10 (HIV)
[6] = target: HIV Env, isolate 20883229_C9_H6 (HIV)
[7] = target: HIV Env, isolate 3603_C11.13 (HIV)
[8] = target: HIV Env, isolate 0984.v2.c2 (HIV)
[9] = target: HIV Env, isolate CT565_C7.48 (HIV)
[10] = target: HIV Env, isolate Ce703010054_2A2 (HIV)
[11] = target: HIV Env, isolate Ce704810053_2B7 (HIV)
[12] = target: HIV Env, isolate 556_F2_3_25 (HIV)
HIV Env, isolate 1245045 = HIV Env, isolate 1245045 (HIV)
[13] = target: HIV Env, isolate 20358510.01 (HIV)
[14] = target: HIV Env, isolate Ko459_T68_4 (HIV)
HIV Env, isolate Du422.1 = HIV Env, isolate Du422.1 (HIV)
[15] = target: HIV Env, isolate B005018-8_F6.3 (HIV)
[16] = target: HIV Env, isolate ZM197M.PB7 (HIV)
[17] = target: HIV Env, isolate CAP136.1.16_E6_1 (HIV)
[18] = target: HIV Env, isolate 19157834_V1 (HIV)
[19] = target: HIV Env, isolate 234-F1-16-57 (HIV)
[20] = target: HIV Env, isolate 3426.v5.c17 (HIV)
[21] = target: HIV Env, isolate 6022.v7.c24 (HIV)
HIV Env, isolate 2969249 = HIV Env, isolate 2969249 (HIV)
[22] = target: HIV Env, isolate CAP244.2.00.D3 (HIV)
[23] = target: HIV Env, isolate 6040.v4.c15 (HIV)
[24] = target: HIV Env, isolate 21502011_F12_E2 (HIV)
[25] = target: HIV Env, isolate 21561324_D3_B5 (HIV)
[26] = target: HIV Env, isolate 18814602_H8_F3 (HIV)
[27] = target: HIV Env, isolate 2865_A11.12 (HIV)
[28] = target: HIV Env, isolate CA392_H2_6 (HIV)
[29] = target: HIV Env, isolate CH0505.w4.3 (HIV)
[30] = target: HIV Env, isolate ZM249M.PL1 (HIV)
[31] = target: HIV Env, isolate CAP266.2.00_E9_h6 (HIV)
[32] = target: HIV Env, isolate CAP45.2.00.G3 (HIV)
[33] = target: HIV Env, isolate ZM214M.PL15 (HIV)

B1: ePGDM9 (antibody, V domains shown)
VH: QAQLVQSGPEVRKPGTSVKVSCKNPGNTLTTYDLHWVRQVPGQGLQWMGWISHEGDKKVIVERFKAKVTIDWDRSTNTAYLQLSGLTSEDTAVYYCAKGSKHRLRDYALYDEDGALNWAVDVDYLANLEFWGQGTAVTVSS
VL: DIVLTQSPLSLSVTPGESASISCKSSQSLIHGDRNNYLAWYVQKPGRSPQLLIDLASERASGVPDRFSGSGSRKDFTLKISRVETEDVGTYYCMQGRESPWTFGQGTKVDIK
With B1 the “IC50” value [1] was 0.007 µg/mL, the “IC80” value [1] was 0.021 µg/mL and the “IC50” value [2] was 0.01 µg/mL. For the same binder, the “IC80” value [2] was 0.039 µg/mL, the “IC50” value [3] was 0.004 µg/mL and the “IC80” value [3] was 0.016 µg/mL. The “IC50” value [4] was 0.005 µg/mL, the “IC80” value [4] was 0.02 µg/mL and the “IC50” value [5] was greater than 50 µg/mL. The “IC80” value [5] was greater than 50 µg/mL, the “IC50” value [6] was greater than 50 µg/mL and the “IC80” value [6] was greater than 50 µg/mL. The “IC50” value [7] was 0.654 µg/mL, the “IC80” value [7] was 2.17 µg/mL and the “IC50” value [8] was 2.81 µg/mL. For the same binder, the “IC80” value [8] was greater than 50 µg/mL, the “IC50” value [9] was less than 0.0006 µg/mL and the “IC80” value [9] was 0.086 µg/mL. For the same binder, the “IC50” value [10] was 0.005 µg/mL, the “IC80” value [10] was 0.027 µg/mL and the “IC50” value [11] was 0.003 µg/mL. For the same binder, the “IC80” value [11] was 0.007 µg/mL, the “IC50” value [12] was greater than 50 µg/mL and the “IC80” value [12] was greater than 50 µg/mL. For the same binder, the “IC50” value (HIV Env, isolate 1245045) was 0.002 µg/mL, the “IC80” value (HIV Env, isolate 1245045) was 0.006 µg/mL and the “IC50” value [13] was 0.004 µg/mL. The “IC80” value [13] was 0.017 µg/mL, the “IC50” value [14] was 0.003 µg/mL and the “IC80” value [14] was 0.126 µg/mL. For the same binder, the “IC50” value (HIV Env, isolate Du422.1) was greater than 50 µg/mL, the “IC80” value (HIV Env, isolate Du422.1) was greater than 50 µg/mL and the “IC50” value [15] was less than 0.0006 µg/mL. The “IC80” value [15] was 0.003 µg/mL, the “IC50” value [16] was 0.017 µg/mL and the “IC80” value [16] was 0.05 µg/mL. For the same binder, the “IC50” value [17] was greater than 50 µg/mL, the “IC80” value [17] was greater than 50 µg/mL and the “IC50” value [18] was 31.7 µg/mL. The “IC80” value [18] was greater than 50 µg/mL, the “IC50” value [19] was less than 0.0006 µg/mL and the “IC80” value [19] was 0.002 µg/mL. For the same binder, the “IC50” value [20] was less than 0.0006 µg/mL, the “IC80” value [20] was 0.002 µg/mL and the “IC50” value [21] was greater than 50 µg/mL. For the same binder, the “IC80” value [21] was greater than 50 µg/mL, the “IC50” value (HIV Env, isolate 2969249) was greater than 50 µg/mL and the “IC80” value (HIV Env, isolate 2969249) was greater than 50 µg/mL. For the same binder, the “IC50” value [22] was 2.87 µg/mL, the “IC80” value [22] was 19.9 µg/mL and the “IC50” value [23] was less than 0.0006 µg/mL. For the same binder, the “IC80” value [23] was 0.003 µg/mL, the “IC50” value [24] was greater than 50 µg/mL and the “IC80” value [24] was greater than 50 µg/mL. The “IC50” value [25] was 0.004 µg/mL, the “IC80” value [25] was 0.038 µg/mL and the “IC50” value [26] was less than 0.0006 µg/mL. The “IC80” value [26] was 0.002 µg/mL, the “IC50” value [27] was 0.071 µg/mL and the “IC80” value [27] was 0.258 µg/mL. The “IC50” value [28] was 0.032 µg/mL, the “IC80” value [28] was 0.129 µg/mL and the “IC50” value [29] was 0.001 µg/mL. For the same binder, the “IC80” value [29] was 0.011 µg/mL, the “IC50” value [30] was 0.004 µg/mL and the “IC80” value [30] was 0.05 µg/mL. For the same binder, the “IC50” value [31] was 0.008 µg/mL, the “IC80” value [31] was 0.037 µg/mL and the “IC50” value [32] was less than 0.0006 µg/mL. The “IC80” value [32] was less than 0.0006 µg/mL, the “IC50” value [33] was greater than 50 µg/mL and the “IC80” value [33] was greater than 50 µg/mL.
